Results: the supplement of paper PMC7877785
± gives the uncertainty stated by the source.

Assay: self-splicing fitness, log relative to wild type (ln ratio); higher = more splicing; Tetrahymena group I intron in knt gene, E. coli kanamycin selection, DiMSum; sequences stand for … in CUCUCU…GGAGGGAAAAGUUAUCAGGCAUGCACCUGGUAGCUAGUCUUUAAACCAAUAGAUUGCAUCGGUUUAAAAGGCAAGACCGUCAAAUUGCGGGAAAGGGGUCAACAGCCGUUCAGUACCAAGUCUCAGGGGAAACUUUGAGAUGGCCUUGCAAAGGGUAUGGUAAUAAGCUGACGGACAUGGUCCUAACCACGCAGCCAAGUCCUAAGUCAACAGAUCUUCUGUUGAUAUGGAUGCAGUUCACAGACUAAAUGUCGGUCGGGGAAGAUGUAUUCUUCUCAUAAGAUAUAGUCGGACCUCUCCUUAAUGGGAGCUAGCGGAUGAAGUGAUGCAACACUGGAGCCGCUGGGAACUAAUUUGUAUGCGAAAGUAUAUUGAUUAGUUUUGGAGUACUCGUGGUCG
Procedure, shortened: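 Six replicate transformations of E. coli BL21(DE3) with a pET-22b(+) library were grown overnight at 37°C or 30°C. The library randomised all eight P1ex-region intron nucleotides, the intron lying in the knt kanamycin-resistance gene, and plates were LB agar with or without 25 μg/mL kanamycin plus 100 μg/mL carbenicillin, 50 μM IPTG and 0.2% rhamnose. Pooled colonies were amplicon-sequenced on an Illumina HiSeq 2500, and fitness is the DiMSum error-weighted combination of wild-type-normalised replicate fold changes, kanamycin versus none.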

Sequence	self-splicing fitness (ln) (30 °C)	self-splicing fitness (ln) (37 °C)
CCAGAGCAAUAUUACGGGGC	-3.91 ± 0.24	-2.8 ± 0.21
AUUAAGCAAUAUUACGAAAU	-1.35 ± 0.13	-1.44 ± 0.18
CGAUAGCAAUAUUACGUGGG	-2.61 ± 0.17	-0.763 ± 0.16
AACUAGCAAUAUUACGACCG	-0.914 ± 0.12	0.134 ± 0.15
AAUUAGCAAUAUUACGAUGG	-3.31 ± 0.24	-0.247 ± 0.17
GCUAAGCAAUAUUACGUAGA	-0.845 ± 0.055	-0.223 ± 0.069
UUACAGCAAUAUUACGGGUU	-3.73 ± 0.12	-2.34 ± 0.12
CUAAAGCAAUAUUACGAGCC	-1.33 ± 0.18	-0.475 ± 0.44
GGCGAGCAAUAUUACGUUUG	-2.31 ± 0.21	-2.78 ± 0.38
GUUCAGCAAUAUUACGUGGU	-1.03 ± 0.057	-0.621 ± 0.079
AGGGAGCAAUAUUACGGAUG	-4 ± 0.33	-2.6 ± 0.31
AUUCAGCAAUAUUACGGGGC	-3.25 ± 0.3	-2.99 ± 0.21
UGUCAGCAAUAUUACGUGAG	-0.0851 ± 0.056	0.251 ± 0.072
GACUAGCAAUAUUACGACUA	-1.04 ± 0.16	-0.443 ± 0.14
AUCCAGCAAUAUUACGCGUC	-3.24 ± 0.12	-1.3 ± 0.13
GUUGAGCAAUAUUACGCCGA	-2.15 ± 0.41	–
UUCAAGCAAUAUUACGAGUA	-0.831 ± 0.083	-0.136 ± 0.089
UGUGAGCAAUAUUACGAAUC	-2.91 ± 0.38	–
GUUCAGCAAUAUUACGAAUG	-0.469 ± 0.076	0.0253 ± 0.11
AUCUAGCAAUAUUACGUUAU	-1.79 ± 0.11	-1.46 ± 0.11
CGACAGCAAUAUUACGUCAC	-3.14 ± 0.14	-2.19 ± 0.16
AUACAGCAAUAUUACGGCGC	-0.801 ± 0.1	0.447 ± 0.15
CCGUAGCAAUAUUACGUGAA	-3.73 ± 0.18	-2.34 ± 0.18
AUGCAGCAAUAUUACGCCAA	-1.09 ± 0.12	-0.608 ± 0.14

Sequence	self-splicing fitness (ln) (30 °C)	self-splicing fitness (ln) (37 °C)
GGUAAGCAAUAUUACGAGAC	-1.71 ± 0.39	-0.652 ± 0.27
CAUAAGCAAUAUUACGACUU	-3.55 ± 0.24	-1.5 ± 0.16
AGUGAGCAAUAUUACGACAU	-1.07 ± 0.014	-0.531 ± 0.034
ACAUAGCAAUAUUACGUGCG	-1.05 ± 0.064	-0.527 ± 0.081
GCCGAGCAAUAUUACGUGGA	-1.68 ± 0.12	-1.76 ± 0.15
UACGAGCAAUAUUACGUAUG	-3.49 ± 0.23	-3.34 ± 0.24
UACUAGCAAUAUUACGGGAA	-1.95 ± 0.13	-0.547 ± 0.1
UCGAAGCAAUAUUACGUAGC	–	-2.17 ± 0.31
CGCAAGCAAUAUUACGAGUC	-3.43 ± 0.13	-2.97 ± 0.19
GUACAGCAAUAUUACGGUGA	-1.75 ± 0.14	-0.943 ± 0.12
AUCCAGCAAUAUUACGCUCC	-0.802 ± 0.12	0.304 ± 0.2
ACACAGCAAUAUUACGGACC	-1.99 ± 0.093	-0.524 ± 0.11
CUGUAGCAAUAUUACGCAUU	-3.8 ± 0.27	-3.28 ± 0.47
GGACAGCAAUAUUACGAGGG	-3.16 ± 0.14	-2.28 ± 0.15
AGGAAGCAAUAUUACGCAUA	-2.39 ± 0.18	-1.15 ± 0.16
UACCAGCAAUAUUACGUACG	-0.42 ± 0.12	-0.594 ± 0.15
GCGUAGCAAUAUUACGCACA	–	-1.71 ± 0.47
AAAUAGCAAUAUUACGGACG	-0.725 ± 0.069	-0.343 ± 0.096
ACUCAGCAAUAUUACGGACU	0.409 ± 0.086	-0.57 ± 0.087
GGGGAGCAAUAUUACGCGUU	-2.88 ± 0.13	-1.04 ± 0.14
GGCUAGCAAUAUUACGGAUC	-0.815 ± 0.23	0.314 ± 0.2
UGUGAGCAAUAUUACGGGCU	-0.671 ± 0.38	-1.48 ± 0.46
AUGCAGCAAUAUUACGCAUU	-3.49 ± 0.11	-3.37 ± 0.19
CACCAGCAAUAUUACGCGGC	-2.68 ± 0.21	-2.72 ± 0.29
